# According to patent US20040120923A1 (ARES TRADING S A, published 2004):
# T1: IL-18Rβ extracellular domain (his6-tagged, produced in Cos cells) (UniProt O95256 20-356, limits assumed)
# T1 construct: extracellular domain; also called IL-18Rβ-ECD; signalling chain of IL-18R
# T1 sequence (looked up): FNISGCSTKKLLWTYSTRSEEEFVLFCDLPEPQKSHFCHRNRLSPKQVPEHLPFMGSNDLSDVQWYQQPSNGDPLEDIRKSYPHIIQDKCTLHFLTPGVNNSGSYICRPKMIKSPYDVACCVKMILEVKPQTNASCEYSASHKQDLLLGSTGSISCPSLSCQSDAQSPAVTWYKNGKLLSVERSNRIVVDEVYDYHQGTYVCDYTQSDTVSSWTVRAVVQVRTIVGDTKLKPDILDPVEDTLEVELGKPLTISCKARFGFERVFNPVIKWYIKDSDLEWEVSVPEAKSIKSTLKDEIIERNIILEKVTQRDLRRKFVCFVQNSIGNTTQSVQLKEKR
# Target: T1, IL-18Rβ extracellular domain …
# Test: chemical cross-linking of the two extracellular domains without ligand, SDS-PAGE, Western blot with anti-his6 mAb against his6-tagged IL-18Rβ
binder,measurement,value
"IL-18Rα extracellular domain (produced in Cos cells) (receptor, UniProt Q13478 22-329, looked up, extracellular domain; It is glycosylated (Cos cell product); also called IL-18Rα-ECD) CTSRPHITVVEGEPFYLKHCSCSLAHEIETTTKSWYKSSGSQEHVELNPRSSSRIALHDCVLEFWPVELNDTGSYFFQMKNYTQKWKLNVIRRNKHSCFTERQVTSKIVEVKKFFQITCENSYYQTLVNSTSLYKNCKKLLLENNKNPTIKKNAEFEDQGYYSCVHFLHHNGKLFNITKTFNITIVEDRSNIVPVLLGPKLNHVAVELGKNVRLNCSALLNEEDVIYWMFGEENGSDPNIHEEKEMRIMTPEGKWHASKVLRIENIGESNLNVLYNCTVASTGGTDTKSFILVRKADMADIPGHVFTR",binding result,no binding
